Source: publication doi:10.1101/2025.04.27.650876, “Embryonic stem cell factors DPPA2/4 facilitate a unique chromatin state in non-small cell lung cancer” (bioRxiv, 2025)

Biological target: T1, Developmental Pluripotency Associated 2 (DPPA2), endogenous (human (endogenous in NCI-H661), UniProt Q7Z7J5 1-298)
T1 construct: DPPA2, human, endogenous in NCI-H661 non-small cell lung cancer cells; source: endogenous, NCI-H661 whole cell lysate
T1 sequence (looked up): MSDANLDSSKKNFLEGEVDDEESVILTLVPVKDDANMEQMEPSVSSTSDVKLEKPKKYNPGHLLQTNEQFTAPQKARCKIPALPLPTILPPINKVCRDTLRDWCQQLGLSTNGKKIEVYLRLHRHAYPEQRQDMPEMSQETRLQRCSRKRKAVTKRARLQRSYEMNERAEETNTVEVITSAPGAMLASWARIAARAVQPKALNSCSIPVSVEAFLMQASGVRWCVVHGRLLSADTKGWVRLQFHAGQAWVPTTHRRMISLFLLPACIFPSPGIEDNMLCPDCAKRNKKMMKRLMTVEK
Experiment: affinity purification with mass spectrometry; endogenous DPPA2 or DPPA4 immunoprecipitated from NCI-H661 whole cell lysates (n=4 per condition); enrichment against species matched IgG IP by label-free quantitation; relative iBAQ for stoichiometry
Conditions: partners not purified

ratio between DPPA2 and DPPA4 (relative iBAQ) in the DPPA2-IP: > 1
B1: Developmental Pluripotency Associated 4 (DPPA4), endogenous (natural protein, human (endogenous in NCI-H661), UniProt Q7L190 1-304, looked up)
chain: MLRGSASSTSMEKAKGKEWTSTEKSREEDQQASNQPNSIALPGTSAKRTKEKMSIKGSKVLCPKKKAEHTDNPRPQKKIPIPPLPSKLPPVNLIHRDILRAWCQQLKLSSKGQKLDAYKRLCAFAYPNQKDFPSTAKEAKIRKSLQKKLKVEKGETSLQSSETHPPEVALPPVGEPPALENSTALLEGVNTVVVTTSAPEALLASWARISARARTPEAVESPQEASGVRWCVVHGKSLPADTDGWVHLQFHAGQAWVPEKQEGRVSALFLLPASNFPPPHLEDNMLCPKCVHRNKVLIKSLQWE
notes: DPPA4, human, endogenous in NCI-H661 non-small cell lung cancer cells; source: endogenous, NCI-H661 whole cell lysate
